± gives the standard deviation of the averaged measurements.
Assay: total protein half-life in vivo (active degradation + dilution); higher = more stable protein
[1] = E. coli NCM3722 delta-clpP delta-lon delta-hslV, growth: N-lim chemostat, doubling time 6 h
[2] = E. coli NCM3722 delta-hslV, growth: N-lim chemostat, doubling time 6 h
[3] = E. coli NCM3722 delta-lon, growth: N-lim chemostat, doubling time 6 h
[4] = E. coli NCM3722 delta-smpB, growth: N-lim chemostat, doubling time 6 h
[5] = wild type E. coli NCM3722, growth: C-lim chemostat, doubling time 3 h
[6] = wild type E. coli NCM3722, growth: C-lim chemostat, doubling time 6 h
[7] = wild type E. coli NCM3722, growth: C-lim chemostat, doubling time 12 h
[8] = wild type E. coli NCM3722, growth: N-lim chemostat, doubling time 6 h
[9] = wild type E. coli NCM3722, growth: N-lim chemostat, doubling time 12 h
[10] = wild type E. coli NCM3722, growth: P-lim chemostat, doubling time 6 h
[11] = wild type E. coli NCM3722, growth: P-lim chemostat, doubling time 12 h
[12] = E. coli NCM3722 delta-clpP, growth: N-lim chemostat, doubling time 6 h

Sequence: MKQPGEELQETLTELDDRAVVDYLIKNPEFFIRNARAVEAIRVPHPVRGTVSLVEWHMARARNHIHVLEENMALLMEQAIANEGLFYRLLYLQRSLTAASSLDDMLMRFHRWARDLGLAGASLRLFPDRWRLGAPSNHTHLALSRQSFEPLRIQRLGQEQHYLGPLNGPELLVVLPEAKAVGSVAMSMLGSDADLGVVLFTSRDASHYQQGQGTQLLHEIALMLPELLERWIERV
- total protein half-life in vivo [1]: 5.46 ± 0.28 h
- total protein half-life in vivo [2]: 1.73 ± 0.75 h
- total protein half-life in vivo [3]: 1.21 ± 0.07 h
- total protein half-life in vivo [4]: 0.944 ± 0.016 h
- total protein half-life in vivo [5]: 1.4 ± 0.051 h
- total protein half-life in vivo [6]: 2.35 ± 0.43 h
- total protein half-life in vivo [7]: 2.74 ± 0.45 h
- total protein half-life in vivo [8]: 1.33 h
- total protein half-life in vivo [9]: 1.56 h
- total protein half-life in vivo [10]: 2.18 ± 0.26 h
- total protein half-life in vivo [11]: 3.12 ± 1 h

Sequence: MNHSLKPWNTFGIDHNAQHIVCAEDEQQLLNAWQYATAEGQPVLILGEGSNVLFLEDYRGTVIINRIKGIEIHDEPDAWYLHVGAGENWHRLVKYTLQEGMPGLENLALIPGCVGSSPIQNIGAYGVELQRVCAYVDSVELATGKQVRLTAKECRFGYRDSIFKHEYQDRFAIVAVGLRLPKEWQPVLTYGDLTRLDPTTVTPQQVFNAVCHMRTTKLPDPKVNGNAGSFFKNPVVSAETAKALLSQFPTAPNYPQADGSVKLAAGWLIDQCQLKGMQIGGAAVHRQQALVLINEDNAKSEDVVQLAHHVRQKVGEKFNVWLEPEVRFIGASGEVSAVETIS
- total protein half-life in vivo [1]: 4.93 ± 1.3 h
- total protein half-life in vivo [12]: 3.45 ± 0.048 h
- total protein half-life in vivo [2]: 3.8 ± 0.13 h
- total protein half-life in vivo [3]: 3.89 ± 0.49 h
- total protein half-life in vivo [4]: 3.52 ± 0.22 h
- total protein half-life in vivo [5]: 2.93 ± 0.053 h
- total protein half-life in vivo [6]: 4.83 ± 0.63 h
- total protein half-life in vivo [7]: 9.87 ± 0.28 h
- total protein half-life in vivo [8]: 3.66 ± 0.11 h
- total protein half-life in vivo [9]: 5.41 ± 0.096 h
- total protein half-life in vivo [10]: 4.81 ± 0.36 h
- total protein half-life in vivo [11]: 8.99 ± 0.82 h

Sequence: MRVENNNVSGQNHDPEQIDLIDLLVQLWRGKMTIIISVIVAIALAIGYLAVAKEKWTSTAIITQPDVGQIAGYNNAMNVIYGQAAPKVSDLQETLIGRFSSAFSALAETLDNQEEREKLTIEPSVKNQQLPLTVSYVGQTAEGAQMKLAQYIQQVDDKVNQELEKDLKDNIALGRKNLQDSLRTQEVVAQEQKDLRIRQIQEALQYANQAQVTKPQIQQTGEDITQDTLFLLGSEALESMIKHEATRPLVFSPNYYQTRQNLLDIESLKVDDLDIHAYRYVMKPMLPIRRDSPKKAITLILAVLLGGMVGAGIVLGRNALRNYNAK
- total protein half-life in vivo [1]: 6.28 ± 0.95 h
- total protein half-life in vivo [12]: 6.967 ± 0.025 h
- total protein half-life in vivo [2]: 6.99 ± 0.87 h
- total protein half-life in vivo [3]: 6.083 ± 0.046 h
- total protein half-life in vivo [4]: 6.13 ± 0.13 h
- total protein half-life in vivo [5]: 3.05 ± 0.051 h
- total protein half-life in vivo [6]: 5.61 ± 0.062 h
- total protein half-life in vivo [7]: 11.1 ± 1.2 h
- total protein half-life in vivo [8]: 6.07 ± 0.17 h
- total protein half-life in vivo [9]: 12 ± 1.5 h
- total protein half-life in vivo [10]: 5.97 ± 0.15 h
- total protein half-life in vivo [11]: 12.1 ± 0.5 h

Sequence: MQNITQSWFVQGMIKATTDAWLKGWDERNGGNLTLRLDDADIAPYHDNFHQQPRYIPLSQPMPLLANTPFIVTGSGKFFRNVQLDPAANLGIVKVDSDGAGYHILWGLTNEAVPTSELPAHFLSHCERIKATNGKDRVIMHCHATNLIALTYVLENDTAVFTRQLWEGSTECLVVFPDGVGILPWMVPGTDEIGQATAQEMQKHSLVLWPFHGVFGSGPTLDETFGLIDTAEKSAQVLVKVYSMGGMKQTISREELIALGKRFGVTPLASALAL
- total protein half-life in vivo [1]: 3.93 h
- total protein half-life in vivo [12]: 2.62 h
- total protein half-life in vivo [2]: 2.77 ± 0.41 h
- total protein half-life in vivo [4]: 2.45 h
- total protein half-life in vivo [6]: 5.1 h
- total protein half-life in vivo [7]: > 16 h
- total protein half-life in vivo [9]: 3.97 h
- total protein half-life in vivo [10]: 4.9 h
- total protein half-life in vivo [11]: 10.1 ± 0.11 h

Sequence: MMQHQVNVSARFNPETLERVLRVVRHRGFHVCSMNMAAASDAQNINIELTVASPRSVDLLFSQLNKLVDVAHVAICQSTTTSQQIRA [P0ADG1]
- total protein half-life in vivo [12]: 0.96 h
- total protein half-life in vivo [3]: 0.664 h
- total protein half-life in vivo [5]: 0.829 ± 0.59 h
- total protein half-life in vivo [6]: 0.318 h
- total protein half-life in vivo [7]: 0.533 h
- total protein half-life in vivo [8]: 0.823 h
- total protein half-life in vivo [9]: 0.848 ± 0.14 h
- total protein half-life in vivo [10]: 0.343 h
- total protein half-life in vivo [11]: 0.967 ± 0.53 h

Sequence: MMSAPKITFIGAGSTIFVKNILGDVFHREALKTAHIALMDIDPTRLEESHIVVRKLMDSAGASGKITCHTQQKEALEDADFVVVAFQIGGYEPCTVTDFEVCKRHGLEQTIADTLGPGGIMRALRTIPHLWQICEDMTEVCPDATMLNYVNPMAMNTWAMYARYPHIKQVGLCHSVQGTAEELARDLNIDPATLRYRCAGINHMAFYLELERKTADGSYVNLYPELLAAYEAGQAPKPNIHGNTRCQNIVRYEMFKKLGYFVTESSEHFAEYTPWFIKPGREDLIERYKVPLDEYPKRCVEQLANWHKELEEYKKASRIDIKPSREYASTIMNAIWTGEPSVIYGNVRNDGLIDNLPQGCCVEVACLVDANGIQPTKVGTLPSHLAALMQTNINVQTLLTEAILTENRDRVYHAAMMDPHTAAVLGIDEIYALVDDLIAAHGDWLPGWLHR
- total protein half-life in vivo [1]: 4.14 h
- total protein half-life in vivo [12]: 2.52 ± 0.52 h
- total protein half-life in vivo [2]: 1.5 h
- total protein half-life in vivo [3]: 2.73 h
- total protein half-life in vivo [5]: 3.25 ± 0.39 h
- total protein half-life in vivo [6]: 4.25 ± 0.26 h
- total protein half-life in vivo [7]: 8.03 ± 1.2 h
- total protein half-life in vivo [8]: 1.97 h
- total protein half-life in vivo [10]: 4.92 ± 0.48 h
- total protein half-life in vivo [11]: 9.8 ± 0.35 h

Sequence: MLLATALLIVGLLLVVYSADRLVFAASILCRTFGIPPLIIGMTVVSIGTSLPEVIVSLAASLHEQRDLAVGTALGSNIINILLILGLAALVRPFTVHSDVLRRELPLMLLVSVVAGSVLYDGQLSRSDGIFLLFLAVLWLLFIVKLARQAERQGTDSLTREQLAELPRDGGLPVAFLWLGIALIIMPVATRMVVDNATVLANYFAISELTMGLTAIAIGTSLPELATAIAGVRKGENDIAVGNIIGANIFNIVIVLGLPALITPGEIDPLAYSRDYSVMLLVSIIFALLCWRRSPQPGRGVGVLLTGGFIVWLAMLYWLSPILVE
- total protein half-life in vivo [1]: 4.93 h

Sequence: MNYRIIPVTAFSQNCSLIWCEQTRLAALVDPGGDAEKIKQEVDDSGLTLMQILLTHGHLDHVGAAAELAQHYGVPVFGPEKEDEFWLQGLPAQSRMFGLEECQPLTPDRWLNEGDTISIGNVTLQVLHCPGHTPGHVVFFDDRAKLLISGDVIFKGGVGRSDFPRGDHNQLISSIKDKLLPLGDDVIFIPGHGPLSTLGYERLHNPFLQDEMPVW
- total protein half-life in vivo [1]: 4.63 ± 0.21 h
- total protein half-life in vivo [12]: 5.7 ± 1.5 h
- total protein half-life in vivo [2]: 3.09 ± 0.2 h
- total protein half-life in vivo [3]: 4.23 ± 0.31 h
- total protein half-life in vivo [4]: 3.17 ± 0.34 h
- total protein half-life in vivo [6]: 6.22 ± 1.2 h
- total protein half-life in vivo [7]: 9.88 ± 0.89 h
- total protein half-life in vivo [8]: 3.73 ± 0.55 h
- total protein half-life in vivo [9]: 4.36 ± 0.79 h
- total protein half-life in vivo [10]: 5.05 ± 0.39 h
- total protein half-life in vivo [11]: 9.46 ± 1.1 h

From the supplement of paper PMC11246515
